Assay results from US20090203610A1, “METHODS OF TREATING OBESITY OR DIABETES USING NT-4/5” (RINAT NEUROSCIENCE CORPORATION, priority 2004, published 2009).
Positions count from the first letter of the chain named. Names may count otherwise.

Tests used:
p75NTR = target: T1, p75NTR (Homo sapiens, UniProt P08138); conditions: low affinity receptor (LNGFR, p75NTR); cited from earlier work
T1 sequence (P08138 29-427): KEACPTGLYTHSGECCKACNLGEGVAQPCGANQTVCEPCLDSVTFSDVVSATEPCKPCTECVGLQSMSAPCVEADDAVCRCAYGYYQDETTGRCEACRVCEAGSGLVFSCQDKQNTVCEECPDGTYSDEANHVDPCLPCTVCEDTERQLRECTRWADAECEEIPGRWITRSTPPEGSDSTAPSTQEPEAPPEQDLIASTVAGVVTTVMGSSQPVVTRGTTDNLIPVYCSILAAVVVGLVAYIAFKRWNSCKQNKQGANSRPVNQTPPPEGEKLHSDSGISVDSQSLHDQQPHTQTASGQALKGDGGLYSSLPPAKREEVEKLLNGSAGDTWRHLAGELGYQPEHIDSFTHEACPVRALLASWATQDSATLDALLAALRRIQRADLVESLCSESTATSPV

human TrkC = target: T2, human TrkC (Homo sapiens, UniProt Q16288); assay: Receptor tyrosine phosphorylation in trkC expressing cell line; assay type: cell-based
T2 construct: expressed in transfected cells
T2 sequence (Q16288 32-839): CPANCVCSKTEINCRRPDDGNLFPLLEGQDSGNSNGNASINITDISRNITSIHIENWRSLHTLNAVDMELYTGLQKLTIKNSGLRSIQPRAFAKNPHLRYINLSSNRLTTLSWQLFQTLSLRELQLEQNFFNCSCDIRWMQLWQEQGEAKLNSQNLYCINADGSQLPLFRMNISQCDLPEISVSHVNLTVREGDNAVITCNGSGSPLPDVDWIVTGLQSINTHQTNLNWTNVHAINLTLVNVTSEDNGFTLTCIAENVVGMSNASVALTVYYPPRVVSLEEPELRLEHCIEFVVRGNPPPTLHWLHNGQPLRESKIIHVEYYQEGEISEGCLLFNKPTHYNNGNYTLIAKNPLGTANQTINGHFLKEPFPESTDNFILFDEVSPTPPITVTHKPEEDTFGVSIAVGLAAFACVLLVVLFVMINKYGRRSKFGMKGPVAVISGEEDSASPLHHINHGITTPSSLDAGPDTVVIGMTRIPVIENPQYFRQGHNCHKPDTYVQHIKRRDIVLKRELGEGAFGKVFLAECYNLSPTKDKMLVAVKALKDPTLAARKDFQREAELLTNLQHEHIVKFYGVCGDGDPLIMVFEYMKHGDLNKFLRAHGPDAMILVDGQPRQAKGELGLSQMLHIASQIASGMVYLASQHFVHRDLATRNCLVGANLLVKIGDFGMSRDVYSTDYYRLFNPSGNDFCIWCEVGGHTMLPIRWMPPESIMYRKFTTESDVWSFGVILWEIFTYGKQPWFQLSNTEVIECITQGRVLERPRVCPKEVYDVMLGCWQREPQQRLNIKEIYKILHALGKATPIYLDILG
Source text: (§1) Assays of TrkB specific activation by pegylated NT-4/5: Stable cell lines expressing human TrkA, TrkB or TrkC were used to determine the functional activity, i.e. receptor phosphorylation, of NT-4/5 and pegylated NT-4/5 as previously described (Sadick et al. Experimental Cell Research 234: 354-361, 1997).
as §1, with “and different forms of” for “and”

human TrkA = target: T3, human TrkA (Homo sapiens, UniProt P04629); assay: Receptor tyrosine phosphorylation in trkA expressing cell line; assay type: cell-based
T3 construct: expressed in transfected cells
T3 sequence (P04629 33-796): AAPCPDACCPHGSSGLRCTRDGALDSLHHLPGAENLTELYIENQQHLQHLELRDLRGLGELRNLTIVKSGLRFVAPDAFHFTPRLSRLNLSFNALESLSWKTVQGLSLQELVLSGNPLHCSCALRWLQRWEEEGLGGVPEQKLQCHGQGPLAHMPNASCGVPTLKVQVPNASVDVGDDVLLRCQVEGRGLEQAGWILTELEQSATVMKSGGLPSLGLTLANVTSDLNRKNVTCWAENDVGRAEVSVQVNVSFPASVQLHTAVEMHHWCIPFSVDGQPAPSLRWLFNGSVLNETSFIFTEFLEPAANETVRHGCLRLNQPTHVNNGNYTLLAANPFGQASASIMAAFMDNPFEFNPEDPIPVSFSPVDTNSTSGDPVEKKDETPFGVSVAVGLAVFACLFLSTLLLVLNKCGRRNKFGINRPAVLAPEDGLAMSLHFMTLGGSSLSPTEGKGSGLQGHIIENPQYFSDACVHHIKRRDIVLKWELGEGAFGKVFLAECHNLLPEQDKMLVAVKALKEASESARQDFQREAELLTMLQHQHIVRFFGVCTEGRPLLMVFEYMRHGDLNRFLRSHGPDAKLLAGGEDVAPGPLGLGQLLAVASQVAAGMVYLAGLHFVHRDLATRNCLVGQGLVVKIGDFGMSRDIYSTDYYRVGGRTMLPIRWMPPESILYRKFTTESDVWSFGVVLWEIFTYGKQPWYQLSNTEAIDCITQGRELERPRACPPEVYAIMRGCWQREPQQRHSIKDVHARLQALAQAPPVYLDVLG
Source text: as §1
as §1, with “and different forms of” for “and”

human TrkB = target: T4, human TrkB (Homo sapiens, UniProt Q16620); assay: Receptor tyrosine phosphorylation (KIRA) in TrkB expressing cell line; assay type: cell-based
T4 construct: expressed in transfected cells
T4 sequence (Q16620 32-822): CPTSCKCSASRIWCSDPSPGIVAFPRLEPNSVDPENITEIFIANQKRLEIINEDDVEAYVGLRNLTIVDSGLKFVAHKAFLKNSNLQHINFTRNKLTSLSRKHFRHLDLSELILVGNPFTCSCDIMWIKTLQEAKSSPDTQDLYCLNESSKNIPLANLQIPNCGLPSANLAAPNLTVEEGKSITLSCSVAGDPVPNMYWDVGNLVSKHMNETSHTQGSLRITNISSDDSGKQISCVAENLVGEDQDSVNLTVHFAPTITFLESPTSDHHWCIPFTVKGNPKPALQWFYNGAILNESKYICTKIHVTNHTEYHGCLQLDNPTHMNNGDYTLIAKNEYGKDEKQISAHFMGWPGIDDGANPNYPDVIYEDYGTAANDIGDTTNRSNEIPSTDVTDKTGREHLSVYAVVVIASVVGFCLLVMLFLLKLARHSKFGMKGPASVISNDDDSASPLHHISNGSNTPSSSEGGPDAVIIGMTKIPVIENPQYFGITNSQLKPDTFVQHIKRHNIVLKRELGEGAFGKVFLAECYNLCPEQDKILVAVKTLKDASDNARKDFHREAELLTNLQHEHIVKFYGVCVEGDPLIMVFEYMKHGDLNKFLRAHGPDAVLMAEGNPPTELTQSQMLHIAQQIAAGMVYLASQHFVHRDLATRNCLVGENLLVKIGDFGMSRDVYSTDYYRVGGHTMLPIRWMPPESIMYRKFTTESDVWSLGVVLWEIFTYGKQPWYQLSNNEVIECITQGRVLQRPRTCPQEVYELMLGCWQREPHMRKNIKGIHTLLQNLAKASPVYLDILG
Source text: Method of making pegylated NT-4/5 (S50C): The native form of NT-4/5 used in this study was produced according to the method described in U.S. Pat. No. 6,184,360. A site-directed pegylated NT-4/5 was also produced. The structure of NT-4/5 in complex with domain 5 of TrkB was examined to find amino acid side chains that would be surface available and unlikely to interfere with natural disulfide bonds and also unlikely to interfere in either the interactions between the monomer subunits of NT-4/5 or the TrkB domain 5 to create a PEG attaching site. […] […] Mutant proteins were expressed in E. coli, solubilized, extracted, purified and refolded as the native NT-4/5. To pegylate the refolded NT4-S50C, NT4-Q105C, and NT-4-E67C, first a mild reduction with 0.1 mM DTT (dithiothreitol) was performed. Excess DTT was removed by dialysis against 50 mM sodium acetate at pH 6, then a 5 molar excess of mPEG-maleimide (M. W. of 10,000 Da, SunBio, Inc., South Korea) was incubated with the protein at 37° C. for several days with gentle agitation. Pegylated protein, non-pegylated protein and unreacted PEG were separated via ion exchange or size exclusion chromatography.
as §1
as §1, with “and different forms of” for “and”

[1] = tested on: NONcNZO-10 polygenic obese mice; assay: Pegylated NT-4/5 cysteine mutant on body weight, food intake, glucose, triglyceride in NONcNZO-10 mice (Example 6); assay type: in vivo; conditions: single subcutaneous injection of 1 mg/kg
Procedure: Test animals: 30 male NONcNZO-10 polygenic obese mice at 10 weeks of age weighing in the range of 27-32 g were used in this study.
Administration of NT-4/5 and pegylated NT-4/5: The mice were divided into 4 groups of equivalent body weight distribution (7-8 mice per group). Each group received on the first day (day 1) of the study one and the only dose of either vehicle alone, 1 mg/kg of NT-4/5 or 1 mg/kg of PEG-NT4-S50C, respectively. A final group received a daily subcutaneous dose of 1 mg/kg of NT-4/5 from day 1 to day 5, then from day 7 to day 9. On day 9 after the treatment started, blood samples were collected to determine serum glucose and triglyceride levels. Body weight and food intake were monitored 5 days a week through out the entire study.

db/db mice [2] = assay: Non-fasting serum glucose after single injection in db/db mice (Example 7); assay type: in vivo; conditions: after 4 days; single subcutaneous injection, 5 mg/kg
Procedure: (§2) Test animals: 30 female db/db mice at 7 weeks of age weighing in the range of 27-34 g were used in this study.
(§3) Administration of NT-4/5 and pegylated NT-4/5: Wild type NT-4/5 was obtained from Genentech Inc. The mice were divided into 5 groups of equivalent body weight distribution (6 mice per group). Each group received on the first day (day 1) of the study one and the only dose of either vehicle, 5 mg/kg of NT-4/5 produced as described above, 5 mg/kg of 2PEG-NT4-G1S, or 5 mg/kg of 1PEG-NT4-G1S. 2PEG-NT4-G1S represents one PEG molecule was conjugated to each NT-4/5 monomer in a NT-4/5 dimer, and 1PEG-NT4-G1S represents one PEG molecule was conjugated to only one monomer of the NT-4/5 dimer. 2PEG-NT4-G1S and 1PEG-NT4-G1S were separated by ion exchange. Four days before starting the treatment (day −4), blood samples were collected from the mice as described previously for the determination of baseline levels of serum glucose. On day 4 after the treatment started, blood samples were collected again to determine serum glucose level. Body weight and food intake were monitored 5 days a week through out the entire study.

db/db mice [3] = assay: Body weight after single injection of NT-4/5 or pegylated NT-4/5 in db/db mice (Example 7, Table 21); assay type: in vivo; conditions: for Body weight expressed in percentage of baseline value: single 5 mg/kg dose on day 1
Procedure: as §2, §3

db/db mice [4] = assay: Daily food intake after single injection of NT-4/5 or pegylated NT-4/5 in db/db mice (Example 7, Table 22); assay type: in vivo; conditions: for Daily food intake: single s.c. injection 5 mg/kg, db/db mice, mean
Procedure: as §2, §3

DIO mice [5] = assay: Weekly intravenous pegylated G1S NT-4/5 versus WT NT-4/5 on body weight and food intake in DIO mice (Example 8); assay type: in vivo
Source text: (§4) Test animals: Mice with diet induced obesity (DIO) were used in this study. 29 male C57BL/6J mice were weaned at 4 weeks of age. Immediately after weaning, they were put on 58% high fat diet (D12331i, Research Diet) through out the study. The DIO mice at 13 weeks of age weighing in the range of 28-40 g were used in this study.
Administration of NT-4/5 and pegylated NT-4/5: NT-4/5 was obtained from Genentech Inc. or produced as described in U.S. Pat. No. 6,184,360. Pegylated NT-4/5 was produced as follows: A mutation was introduced by changing the glycine 1 position of mature human NT-4/5 sequence to serine, resulting in a mutant form of NT-4/5 (NT4-G1S). NT4-G1S protein was expressed in E. coli, solubilized, extracted, purified and refolded as described above. Refolded NT4-G1S was dialyzed into 50 mM sodium phosphate buffer at pH 6.8 and treated with 1.5 molar excess sodium meta-periodate for 10 minutes to oxidize the N-terminal serine (or threonine) residue to an aldehyde. Remaining periodate was removed by dialysis against 30 mM sodium acetate at pH 4.5. The exact concentration of NT4-G1S was determined and a 2 to 4 fold molar excess of 20K-m-PEG-HZ (methoxy polyethylene glycol hydrazide) was added. The reaction was incubated at 37° C. for several days with gentle agitation. Unconjugated PEG, pegylated NT4-G1S and non-pegylated NT4-G1S were separated via ion exchange or size exclusion chromatography.
The mice were divided into 3 groups of equivalent body weight and baseline blood glucose distribution (7-8 mice per group). Each group received four weekly intravenous doses (on day 1, 8, 15 and 22) of either vehicle, 2 mg/kg of NT-4/5 or 2 mg/kg of pegylated G1S NT-4/5 respectively. Body weight and food intake were monitored 5 days per week through out the entire study.

DIO mice [6] = assay: NT-4/5 versus BDNF on body weight and food intake of DIO mice (Example 10); assay type: in vivo; conditions: 2 mg/kg i.v.
Source text: as §4, with “22” for “29”, “weaning” for “weaning,”
Administration of NT-4/5 and BDNF: NT-4/5 was produced was produced as described in U.S. Pat. No. 6,184,360. The recombinant human BDNF was obtained from PeproTech Inc. (Rocky Hill, N.J.).
The mice were divided into 3 groups of equivalent body weight distribution (7-8 mice per group). Each group received 2 weekly intravenous doses of either vehicle, 2 mg/kg of NT-4/5 or 2 mg/kg of BDNF, respectively. Body weight and food intake were taken the day before treatment started (day 0) and followed subsequently on a daily basis.

[7] = single subcutaneous injection, 5 mg/kg, significantly

In the case of “NGF: nerve growth factor, control [reference compound]”, the Kd (p75NTR) is listed as 2 nM.

In the case of “NT-3: neurotrophin-3, control activating trkC expressing cells [reference compound]”, the Kd (p75NTR) is given as 2 nM and the “receptor tyrosine phosphorylation of trkC-expressing cell line” value (human TrkC) is given as “activated trkC expressing cells”.

B1: PEG-NT4-S50C: human NT-4/5 with serine 50 changed to cysteine, pegylated with mPEG-maleimide (10,000 Da) (conjugate)
chain: GVSETAPASRRGELAVCDAVSGWVTDRRTAVDLRGREVEVLGEVPAAGGCPLRQYFFETRCKADNAEEGGPGAGGGGCRGVDRRHWVSECKAKQSYVRALTADAQGRVGWRWIRIDTACVCTLLSRTGRA
In the case of B1, the “receptor tyrosine phosphorylation of trkA-expressing cell line” value (human TrkA) is reported as “did not increase receptor tyrosine phosphorylation”, the “receptor tyrosine phosphorylation of TrkB-expressing cell line” value (human TrkB) is reported as “increased receptor tyrosine phosphorylation” and the “body weight” value [1] is reported as “significantly reduced”. For the same molecule, the “food intake” value [1] was “significantly reduced”, the “blood glucose level” value ([1]; day 9) was “did not significantly reduce” and the “triglyceride level” value ([1]; day 9) was “did not significantly reduce”. For the same molecule, the “receptor tyrosine phosphorylation of trkC-expressing cell line” value (human TrkC) was “did not increase receptor tyrosine phosphorylation”.

B2: 1PEG-NT4-G1S: NT4-G1S dimer with one 20 kDa PEG molecule conjugated to only one monomer (conjugate)
chain 1: B1 chain with G1S, C50S
chain 2: B1 chain with G1S, C50S
For B2, the “receptor tyrosine phosphorylation of trkA-expressing cell line” value (human TrkA) was “did not increase receptor tyrosine phosphorylation”, the “non-fasting serum glucose levels” value (db/db mice [2]) was “showed a tendency to reduce” and the “receptor tyrosine phosphorylation of TrkB-expressing cell line” value (human TrkB) was “increased receptor tyrosine phosphorylation”. The “Body weight expressed in percentage of baseline value” (shortened to “Body weight expressed in percentage”) (db/db mice [3]; Day 1) was 100.0 % of baseline, the “Body weight expressed in percentage” value (db/db mice [3]; Day 2) was 98.2 % of baseline and the “Body weight expressed in percentage” value (db/db mice [3]; Day 3) was 100.0 % of baseline. For the same molecule, the “Body weight expressed in percentage” value (db/db mice [3]; Day 4) was 103.0 % of baseline, the “body weight growth” value (db/db mice [3]; [7]) was “reduced the body weight growth” and the Daily food intake (db/db mice [4]; Day 1) was 6.8 g/day. The Daily food intake (db/db mice [4]; Day 2) was 5.3 g/day, the Daily food intake (db/db mice [4]; Day 3) was 6.7 g/day and the Daily food intake (db/db mice [4]; Day 4) was 6.3 g/day. The “food intake” value (db/db mice [4]; [7]) was “reduced” and the “receptor tyrosine phosphorylation of trkC-expressing cell line” value (human TrkC) was “did not increase receptor tyrosine phosphorylation”.

B3: pegylated G1S NT-4/5: NT4-G1S (glycine 1 to serine) pegylated with 20K-m-PEG-HZ; 1PEG or 2PEG form not stated (conjugate, UniProt P34130 81-210, looked up, variant G1S)
Neurotrophin-4: B1 chain with G1S, C50S
modifications: 20K-m-PEG-HZ
In the case of B3, the “body weight after the first single dose” value (DIO mice [5]; 2 mg/kg i.v.) is reported as “more effective in reducing body weight”, the “food intake after the first single dose” value (DIO mice [5]; 2 mg/kg i.v.) is reported as “more effective in reducing food intake than WT NT-4/5” and the “body weight, pairwise difference with the vehicle control group” value (DIO mice [5]; 2 mg/kg i.v. on day 1, 8, 15, 22, Bonferroni posttests) is reported as “significant pairwise differences”. The “time to body weight recovery after each weekly dosing” value (DIO mice [5]; 2 mg/kg i.v. weekly) was 3 to 4 days.

B4: BDNF: recombinant human brain-derived neurotrophic factor from PeproTech Inc. (protein, UniProt P23560 19-247, looked up)
Neurotrophic factor BDNF …: APMKEANIRGQGGLAYPGVRTHGTLESVNGPKAGSRGLTSLADTFEHVIEELLDEDQKVRPNEENNKDADLYTSRVMLSSQVPLEPPLLFLLEEYKNYLDAANMSMRVRRHSDPARRGELSVCDSISEWVTAADKKTAVDMSGGTVTVLEKVPVSKGQLKQYFYETKCNPMGYTKEGCRGIDKRHWNSQCRTTQSYVRALTMDSKKRIGWRFIRIDTSCVCTLTIKRGR
For B4, the Kd (p75NTR) is listed as 2 nM, the “body weight on day 2” value (DIO mice [6]) is listed as “did not significantly reduce body weigh” and the “food intake on day 2” value (DIO mice [6]) is listed as “did not significantly reduce food intake”.
